Experimental data reported in FireProtDB (doi:10.1002/pro.100).

Details: Homo sapiens, 25 °C, Urea, Fluorescence, Potassium phosphate 25 mM, NaCl 25 mM, reversible: Yes, whole UniProt chain shown

B1: Prolactin wild type, P01236 (protein)
chain: MNIKGSPWKGSLLLLLVSNLLLCQSVAPLPICPGGAARCQVTLRDLFDRAVVLSHYIHNLSSEMFSEFDKRYTHGRGFITKAINSCHTSSLATPEDKEQAQQMNQKDFLSLIVSILRSWNEPLYHLVTEVRGMQEAPEAILSKAVEIEEQTKRLLEGMELIVSQVHPETKENEIYPVWSGLPSLQMADEESRLSAYYNLLHCLRRDSHKIDNYLKLLKCRIIHNNNC
For B1, the denaturant m value (pH 5.8) was 0.79 kcal/mol/M, the “denaturant midpoint (higher = more stable)” value (pH 5.8) was 5.48 M and the unfolding free energy (pH 5.8) was 4.3 kcal/mol. For the same protein, the denaturant m value (pH 7.8) was 1.35 kcal/mol/M, the “denaturant midpoint (higher = more stable)” value (pH 7.8) was 6.08 M and the unfolding free energy (pH 7.8) was 8.2 kcal/mol.
